We go through one molecule from PMC2120351 (The Journal of Cell Biology, 1995).

The target of data set [1] is T1, recombinant whole p62 (rat nucleoporin p62 expressed in E. coli) (rat, UniProt P17955 1-525).
T1 sequence: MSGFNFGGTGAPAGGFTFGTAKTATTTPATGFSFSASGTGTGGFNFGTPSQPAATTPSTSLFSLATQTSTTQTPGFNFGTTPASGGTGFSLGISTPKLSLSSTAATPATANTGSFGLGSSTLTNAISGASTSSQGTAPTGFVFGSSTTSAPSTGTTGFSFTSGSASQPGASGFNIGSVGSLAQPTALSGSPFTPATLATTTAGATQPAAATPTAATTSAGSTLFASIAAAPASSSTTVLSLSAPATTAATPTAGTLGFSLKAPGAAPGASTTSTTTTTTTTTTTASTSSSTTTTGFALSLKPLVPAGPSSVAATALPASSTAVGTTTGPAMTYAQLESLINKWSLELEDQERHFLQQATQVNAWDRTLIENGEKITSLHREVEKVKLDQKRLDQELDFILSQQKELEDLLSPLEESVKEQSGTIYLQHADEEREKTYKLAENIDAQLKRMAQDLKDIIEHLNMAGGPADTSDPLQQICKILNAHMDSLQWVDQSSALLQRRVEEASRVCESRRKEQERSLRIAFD
As to the kind of experiment: far-Western, overlay or dot blot.

Data set [2] deals with the molecule itself. In words: far-Western, overlay or dot blot.

B1: recombinant p62 rod domain (domain or fragment)
chain: MTYAQLESLINKWSLELEDQERHFLQQATQVNAWDRTLIENGEKITSLHREVEKVKLDQKRLDQELDFILSQQKELEDLLSPLEESVKEQSGTIYLQHADEEREKTYKLAENIDAQLKRMAQDLKDIIEHLNMAGGPADTSDPLQQICKILNAHMDSLQWVDQSSALLQRRVEEASRVCESRRKEQERSLRIAFD
Turning to B1, the binding result in data set [1] and in data set [2] was “binds” each time.
